Where a chain is given by its changes, count along the chain named. Read-outs that look alike come from different tables or passages of the source. Blank lines part the entries; values can stand above or below the molecule they belong to.
Assays:
human CDH6 on cells [1] = target: T1, human CDH6 on cells (human, UniProt P55285 54-790); assay: FACS on OVCAR8-CDH6+ cells, histogram table
T1 sequence: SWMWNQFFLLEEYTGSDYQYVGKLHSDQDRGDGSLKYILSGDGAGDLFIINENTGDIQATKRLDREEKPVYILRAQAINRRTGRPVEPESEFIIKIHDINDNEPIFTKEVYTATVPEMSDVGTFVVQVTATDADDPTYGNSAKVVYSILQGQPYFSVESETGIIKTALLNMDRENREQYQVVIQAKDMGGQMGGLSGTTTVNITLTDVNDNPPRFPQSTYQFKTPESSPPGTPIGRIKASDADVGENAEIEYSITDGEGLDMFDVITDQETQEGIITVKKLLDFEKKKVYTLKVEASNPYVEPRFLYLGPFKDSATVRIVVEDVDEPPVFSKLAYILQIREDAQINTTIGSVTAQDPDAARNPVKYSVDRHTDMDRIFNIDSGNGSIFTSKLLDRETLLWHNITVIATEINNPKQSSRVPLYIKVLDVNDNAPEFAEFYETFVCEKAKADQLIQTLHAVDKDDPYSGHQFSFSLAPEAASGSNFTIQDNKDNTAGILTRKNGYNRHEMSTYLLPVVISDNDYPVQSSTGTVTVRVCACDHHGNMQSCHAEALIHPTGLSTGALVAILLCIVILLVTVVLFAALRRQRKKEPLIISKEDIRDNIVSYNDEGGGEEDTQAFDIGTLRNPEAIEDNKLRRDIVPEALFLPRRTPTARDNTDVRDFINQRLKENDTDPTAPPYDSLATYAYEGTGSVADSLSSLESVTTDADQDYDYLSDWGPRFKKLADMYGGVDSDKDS

human CDH6 on cells [2] = target: T1, human CDH6 on cells; assay: FACS on OVCAR3 cells, histogram table
human CDH6 on cells [3] = target: T1, human CDH6 on cells; assay: FACS on OVCAR8-CDH6+ cells, EC50 [M] table
human CDH6 on cells [4] = target: T1, human CDH6 on cells; assay: FACS on OVCAR3 cells
rat CDH6 on cells = target: T2, rat CDH6 on cells (rat, UniProt P55280 54-789); assay: FACS on CHO-ratCDH6 cells
T2 sequence (looked up): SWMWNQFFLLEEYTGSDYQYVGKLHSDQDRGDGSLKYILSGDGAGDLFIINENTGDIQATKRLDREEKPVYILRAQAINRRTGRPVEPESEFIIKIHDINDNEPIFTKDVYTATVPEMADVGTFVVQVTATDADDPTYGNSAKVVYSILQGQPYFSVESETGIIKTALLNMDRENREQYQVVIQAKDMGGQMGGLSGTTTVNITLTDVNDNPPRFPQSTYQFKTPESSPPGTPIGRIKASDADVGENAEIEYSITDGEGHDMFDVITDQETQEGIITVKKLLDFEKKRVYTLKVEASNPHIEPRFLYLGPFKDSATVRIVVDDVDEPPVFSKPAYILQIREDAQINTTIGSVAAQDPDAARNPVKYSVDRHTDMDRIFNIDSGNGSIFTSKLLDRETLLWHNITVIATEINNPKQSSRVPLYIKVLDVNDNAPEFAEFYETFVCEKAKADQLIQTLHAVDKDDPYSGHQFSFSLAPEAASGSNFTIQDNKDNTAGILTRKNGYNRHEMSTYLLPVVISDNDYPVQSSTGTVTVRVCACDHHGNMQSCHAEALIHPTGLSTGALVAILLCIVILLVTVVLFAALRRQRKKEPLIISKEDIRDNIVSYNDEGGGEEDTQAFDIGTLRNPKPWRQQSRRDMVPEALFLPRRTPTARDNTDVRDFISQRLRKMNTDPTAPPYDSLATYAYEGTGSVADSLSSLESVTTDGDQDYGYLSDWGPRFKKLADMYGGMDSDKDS

human CDH6 on cells [5] = target: T1, human CDH6 on cells; assay: FACS on CHO-TO-humanCDH6 cells plus tetracycline
mouse CDH6 on cells = target: T3, mouse CDH6 on cells (mouse, UniProt P97326 54-790); assay: FACS on CHO-mouseCDH6 cells
T3 sequence (looked up): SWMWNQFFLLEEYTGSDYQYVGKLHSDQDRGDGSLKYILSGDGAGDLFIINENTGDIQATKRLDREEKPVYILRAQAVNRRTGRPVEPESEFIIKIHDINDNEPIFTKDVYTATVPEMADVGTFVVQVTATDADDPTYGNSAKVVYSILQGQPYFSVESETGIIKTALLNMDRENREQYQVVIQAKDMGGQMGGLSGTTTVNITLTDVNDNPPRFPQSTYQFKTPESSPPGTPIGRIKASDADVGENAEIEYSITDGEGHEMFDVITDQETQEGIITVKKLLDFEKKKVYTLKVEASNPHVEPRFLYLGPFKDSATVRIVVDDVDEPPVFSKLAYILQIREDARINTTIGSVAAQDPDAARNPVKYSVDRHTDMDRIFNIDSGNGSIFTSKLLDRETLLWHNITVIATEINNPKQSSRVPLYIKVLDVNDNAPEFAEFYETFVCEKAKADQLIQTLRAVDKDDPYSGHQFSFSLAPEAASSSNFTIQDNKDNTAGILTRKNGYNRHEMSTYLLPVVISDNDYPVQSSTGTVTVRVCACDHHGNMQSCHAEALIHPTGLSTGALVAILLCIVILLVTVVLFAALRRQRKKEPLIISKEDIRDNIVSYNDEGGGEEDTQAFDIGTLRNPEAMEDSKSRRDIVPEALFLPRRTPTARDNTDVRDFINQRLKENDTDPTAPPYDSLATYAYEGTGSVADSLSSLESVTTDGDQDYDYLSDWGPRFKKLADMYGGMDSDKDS

cynomolgus CDH6 on cells = target: T4, cynomolgus CDH6 on cells (cynomolgus, UniProt A0A2K5TW62 54-790); assay: FACS on CHO-cynoCDH6 cells
T4 sequence: T1 sequence with Y300H, H457R, A707G

hCDH6aa54-615 APPavi [6] = target: T5, hCDH6aa54-615 APPavi (human, UniProt P55285 54-615); assay: SPR binning
T5 sequence: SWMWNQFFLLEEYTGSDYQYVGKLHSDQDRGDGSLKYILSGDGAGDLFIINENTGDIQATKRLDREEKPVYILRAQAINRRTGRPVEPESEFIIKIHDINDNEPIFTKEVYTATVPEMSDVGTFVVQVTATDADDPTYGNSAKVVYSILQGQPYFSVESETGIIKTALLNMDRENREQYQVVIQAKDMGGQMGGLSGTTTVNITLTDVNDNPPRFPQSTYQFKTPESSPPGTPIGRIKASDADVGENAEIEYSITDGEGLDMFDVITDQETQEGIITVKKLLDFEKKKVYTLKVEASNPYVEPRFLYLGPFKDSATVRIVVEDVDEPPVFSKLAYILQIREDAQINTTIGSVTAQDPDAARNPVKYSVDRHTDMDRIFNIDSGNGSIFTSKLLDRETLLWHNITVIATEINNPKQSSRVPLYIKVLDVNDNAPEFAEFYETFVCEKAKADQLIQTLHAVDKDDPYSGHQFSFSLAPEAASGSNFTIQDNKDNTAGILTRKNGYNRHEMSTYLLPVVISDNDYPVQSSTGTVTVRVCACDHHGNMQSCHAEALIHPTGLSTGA

hCDH6aa54-615 APPavi [7] = target: T5, hCDH6aa54-615 APPavi; assay: SPR binning; remark: listed apart in the source
hCDH6aa54-615 APPavi [8] = target: T5, hCDH6aa54-615 APPavi; assay: SPR binning; remark: listed apart in the source
hCDH6aa54-615 APPavi [9] = target: T5, hCDH6aa54-615 APPavi; assay: SPR binning; remark: listed apart in the source
hCDH6aa54-615 APPavi [10] = target: T5, hCDH6aa54-615 APPavi; assay: SPR binning; remark: listed apart in the source
hCDH6aa54-615 APPavi [11] = target: T5, hCDH6aa54-615 APPavi; assay: SPR binning; remark: listed apart in the source
hCDH6aa54-615 APPavi [12] = target: T5, hCDH6aa54-615 APPavi; assay: SPR binning; remark: listed apart in the source

- Geom. Mean Fluorescence (human CDH6 on cells [1]): 56.5
- Geom. Mean Fluorescence (human CDH6 on cells [2]): 60.4
Molecule: control IgG-sulfo-SPDB-DM4 (antibody)

- EC50 (human CDH6 on cells [3]): 0.715 nM
- EC50 (read off the curve) (human CDH6 on cells [4]): ~0.4 nM
- EC50 (read off the curve) (rat CDH6 on cells): ~0.7 nM
- EC50 (read off the curve) (human CDH6 on cells [5]): ~0.5 nM
- EC50 (read off the curve) (mouse CDH6 on cells): ~0.7 nM
- EC50 (read off the curve) (cynomolgus CDH6 on cells): ~0.7 nM
B1: NOV0712-sulfo-SPDB-DM4 (antibody, human IgG1, kappa, V domains shown)
VH: QVQLLESGGGLVQPGGSLRLSCAASGFTFSSHGMHWVRQAPGKGLEWVSVISGSGSNTGYADSVKGRFTISRDNSKNTLYLQMNSLRAEDTAVYYCARQWGSYAFDSWGQGTLVTVSS
VL: DIQMTQSPSSLSASVGDRVTITCRASQSISSYLNWYQQKPGKAPKLLIYAVSTLQSGVPSRFSGSGSGTDFTLTISSLQPEDFATYYCQQSGTFPPTTFGQGTKVEIKR
modifications: sulfo-SPDB-DM4 on primary amines, sites not stated

- response of secondary antibody on primary antibody-CDH6 complex (hCDH6aa54-615 APPavi [6]): -2.36
- response of secondary antibody on primary antibody-CDH6 complex (hCDH6aa54-615 APPavi [7]): 11.1
- response of secondary antibody on primary antibody-CDH6 complex (hCDH6aa54-615 APPavi [8]): 46.9
- response of secondary antibody on primary antibody-CDH6 complex (hCDH6aa54-615 APPavi [9]): 16.1
- response of secondary antibody on primary antibody-CDH6 complex (hCDH6aa54-615 APPavi [10]): 13.5
- response of secondary antibody on primary antibody-CDH6 complex (hCDH6aa54-615 APPavi [11]): 25.4
- response of secondary antibody on primary antibody-CDH6 complex (hCDH6aa54-615 APPavi [12]): 20.7
B2: NOV0719 (antibody, human IgG1, kappa, V domains shown)
VH: QVQLLESGGGLVQPGGSLRLSCAASGFTFSSHWVHWVRQAPGKGLEWVSVISYMGSSTYYADSVKGRFTISRDNSKNTLYLQMNSLRAEDTAVYYCARGSYDMAFDVWGQGTLVTVSS
VL: DIQMTQSPSSLSASVGDRVTITCRASQSIVSYLNWYQQKPGKAPKLLIYDASSLQSGVPSRFSGSGSGTDFTLTISSLQPEDFATYYCQQSGSHSITFGQGTKVEIKR

- response of secondary antibody on primary antibody-CDH6 complex (hCDH6aa54-615 APPavi [6]): 33.6
- response of secondary antibody on primary antibody-CDH6 complex (hCDH6aa54-615 APPavi [7]): 14.3
- response of secondary antibody on primary antibody-CDH6 complex (hCDH6aa54-615 APPavi [8]): 39.3
- response of secondary antibody on primary antibody-CDH6 complex (hCDH6aa54-615 APPavi [9]): 17.8
- response of secondary antibody on primary antibody-CDH6 complex (hCDH6aa54-615 APPavi [10]): 17.9
- response of secondary antibody on primary antibody-CDH6 complex (hCDH6aa54-615 APPavi [11]): 23.7
- response of secondary antibody on primary antibody-CDH6 complex (hCDH6aa54-615 APPavi [12]): 1.08
B3: NOV1132 (antibody, human IgG1, lambda, V domains shown)
VH: QVQLQQSGPGLVKPSQTLSLTCAISGDSVSSQSAGWNWIRQSPSRGLEWLGRIYYRSKWYNDYAVSVKSRITINPDTSKNQFSLQLNSVTPEDTAVYYCAREKYTVSFYDFFDYWGQGTLVTVSS
VL: SYELTQPLSVSVALGQTARITCSGDNIGSMTAHWYQQKPGQAPVLVIYDKNERPSGIPERFSGSNSGNTATLTISRAQAGDEADYYCQSWDDSYTSVVFGGGTKLTVLG

Reference: patent US20170224836A1 (Novartis, published 2017)
